To fix the notation:
T1: human IL-7R on human peripheral blood mononuclear cells (CD4+ gated) (human, UniProt P16871 21-459)
T1 sequence (looked up): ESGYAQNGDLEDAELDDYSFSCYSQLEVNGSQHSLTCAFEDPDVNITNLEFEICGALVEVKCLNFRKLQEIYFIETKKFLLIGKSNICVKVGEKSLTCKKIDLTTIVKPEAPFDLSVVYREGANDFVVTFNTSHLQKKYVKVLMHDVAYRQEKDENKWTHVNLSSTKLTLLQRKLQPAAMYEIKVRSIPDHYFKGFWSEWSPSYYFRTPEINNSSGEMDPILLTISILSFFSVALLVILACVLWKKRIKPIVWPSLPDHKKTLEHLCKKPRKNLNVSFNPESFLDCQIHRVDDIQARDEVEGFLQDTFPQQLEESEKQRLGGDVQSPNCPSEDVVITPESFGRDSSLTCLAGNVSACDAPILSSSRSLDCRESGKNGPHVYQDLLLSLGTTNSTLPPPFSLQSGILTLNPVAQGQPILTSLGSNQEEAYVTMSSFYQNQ

T2: Human IL-7R-hFc antigen (R&D systems) (human, UniProt P16871 21-239)
T2 construct: Bought from R&D Systems; not shown: human Fc (hFc) of the bought fusion
T2 sequence (looked up): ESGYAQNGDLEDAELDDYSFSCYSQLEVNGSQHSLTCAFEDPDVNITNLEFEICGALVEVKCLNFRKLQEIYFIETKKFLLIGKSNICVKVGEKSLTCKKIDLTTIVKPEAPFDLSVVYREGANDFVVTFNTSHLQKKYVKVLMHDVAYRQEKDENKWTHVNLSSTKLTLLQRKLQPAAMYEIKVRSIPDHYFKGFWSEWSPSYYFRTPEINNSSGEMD

B1: P2D2 (antagonist IL-7R fully human monoclonal antibody, format not stated) (antibody, V domains shown)
VH: QVNLRESGGGLVKPGGSLRLSCAASGFTFDDSVMHWVRQAPGKGLEWLSLVGWDGFFTYYADSVKGRFTISRDNTKNLLYLQMNSLRAEDTAVYYCARQGDYVFNNWGQGTLVTVSS
VL: NFMLTQPHSVSGSPGKTVTISCTRSSGSIDSSYVQWYQQRPGNSPTTVIYEDDQRPSGVPDRFSGSIDSSSNSASLTISGLVTEDEADYYCMQYDSSHLVFGGGTKLTVLC
B2: P2E11 (antagonist IL-7R fully human monoclonal antibody, format not stated) (antibody, V domains shown)
VH: QVNLRESGGGLVKPGGSLRLSCAASGFTFDDSVMHWVRQAPGKGLEWLSLVGWDGFFTYYADSVKGRFTISRDNTKNLLYLQMNSLRAEDTAVYYCARQGDYMGDYWGQGTLVTVSS
VL: NFMLTQPHSVSGSPGKTVTISCTRSSGSIDSSYVQWYQQRPGNSPTTVIYEDDQRPSGVPDRFSGSIDSSSNSASLTISGLVTEDEADYYCQSYDFHHLVFGGGTKLTVLC
B3: P4B3 Fab (Fab, V domains shown)
VH: QVTLKESGGGLVQPGGSLRLSCAASGFTFSNYGMHWVRQAPGKGLEWVSAISGSGGSTYYADSVKGRFTISRDNSKNTVYLQMNSLRDEDTAVYYCARDISGGGMDVWGQGTTVTVSS
VL: NFMLTQPHSVSESPGKTVTISCTGSSGRIASSYVQWYQQRPGSAPTTVIYEDNQRPSGVPDRFSGSIDSSSNSASLTISGLKTEDEADYYCQSYASSSLWVFGGGTQLTVLS
B4: C2M3 (hIgG1) (antibody, V domains shown)
VH: EVQLVESGGGLVKPGGSLRLSCAASGFTFDDSVMHWVRQAPGKGLEWVSLVGWDGFFTYYADSVKGRFTISRDNAKNSLYLQMNSLRAEDTAVYYCARQGDYMGNNWGQGTLVTVSS
VL: NFMLTQPHSVSESPGKTVTISCTRSSGSIDSSYVQWYQQRPGSSPTTVIYEDDQRPSGVPDRFSGSIDSSSNSASLTISGLKTEDEADYYCMQYDFHHLVFGGGTKLTVL
notes: Only variable domains are tied to C2M3
B5: HAL403a Fab (Fab, V domains shown)
VH: QVNLRESGGGLVKPGGSLRLSCAASGFTFDDSVMHWVRQAPGKGLEWLSLVGWDGFFTYYADSVKGRFTISRDNTKNLLYLQMNSLRAEDTAVYYCARQGDYMGNNWGQGTLVTVSS
VL: NFMLTQPHSVSGSPGKTVTISCTRSSGSIDSSYVQWYQQRPGNSPTTVIYEDDQRPSGVPDRFSGSIDSSSNSASLTISGLVTEDEADYYCQSYDFHHLVFGGGTKLTVLC
B6: C2M3 (hIgG2ΔA) (antibody, V domains shown)
VH: EVQLVESGGGLVKPGGSLRLSCAASGFTFDDSVMHWVRQAPGKGLEWVSLVGWDGFFTYYADSVKGRFTISRDNAKNSLYLQMNSLRAEDTAVYYCARQGDYMGNNWGQGTLVTVSS
VL: NFMLTQPHSVSESPGKTVTISCTRSSGSIDSSYVQWYQQRPGSSPTTVIYEDDQRPSGVPDRFSGSIDSSSNSASLTISGLKTEDEADYYCMQYDFHHLVFGGGTKLTVL
notes: the footnote is printed with **); Only variable domains are tied to C2M3
B7: P2D2 Fab (Fab, V domains shown)
VH: QVNLRESGGGLVKPGGSLRLSCAASGFTFDDSVMHWVRQAPGKGLEWLSLVGWDGFFTYYADSVKGRFTISRDNTKNLLYLQMNSLRAEDTAVYYCARQGDYVFNNWGQGTLVTVSS
VL: NFMLTQPHSVSGSPGKTVTISCTRSSGSIDSSYVQWYQQRPGNSPTTVIYEDDQRPSGVPDRFSGSIDSSSNSASLTISGLVTEDEADYYCMQYDSSHLVFGGGTKLTVLC
B8: P3A9 Fab (Fab, V domains shown)
VH: QVNLRESGGGLVKPGGSLRLSCAASGFTFDDSVMHWVRQAPGKGLEWLSLVGWDGSATYYADSVKGRFTISRDNTKNLLYLQMNSLRAEDTAVYYCARQGDYVFDYWGQGTLVTVSS
VL: NFMLTQPHSVSGSPGKTVTISCTRSSGSIDSSYVQWYQQRPGNSPTTVIYEDDQRPSGVPDRFSGSIDSSSNSASLTISGLVTEDEADYYCQSYDSSHLVFGGGTKLTVLC
B9: HAL403b Fab (Fab, V domains shown)
VH: QVNLRESGGGLVKPGGSLRLSCAASGFTFDDSVMHWVRQAPGKGLEWLSLVGWDGFFTYYADSVKGRFTISRDNTKNLLYLQMNSLRAEDTAVYYCARQGDYMGNNWGQGTLVTVSS
VL: NFMLTQPHSVSGSPGKTVTISCTRSSGSIDSSYVQWYQQRPGNSPTTVIYEDDQRPSGVPDRFSGSIDSSSNSASLTISGLVTEDEADYYCMQYDFHHLVFGGGTKLTVLC
B10: C1GM Fab (Fab, V domains shown)
VH: EVQLVESGGGLVKPGGSLRLSCAASGFTFDDSVMHWVRQAPGKGLEWVSLVGWDGFFTYYADSVKGRFTISRDNAKNSLYLQMNSLRAEDTAVYYCARQGDYMGNNWGQGTLVTVSS
VL: NFMLTQPHSVSESPGKTVTISCTRSSGSIDSSYVQWYQQRPGSSPTTVIYEDDQRPSGVPDRFSGSIDSSSNSASLTISGLKTEDEADYYCQSYDFHHLVFGGGTKLTVL
B11: P2E11 Fab (Fab, V domains shown)
VH: QVNLRESGGGLVKPGGSLRLSCAASGFTFDDSVMHWVRQAPGKGLEWLSLVGWDGFFTYYADSVKGRFTISRDNTKNLLYLQMNSLRAEDTAVYYCARQGDYMGDYWGQGTLVTVSS
VL: NFMLTQPHSVSGSPGKTVTISCTRSSGSIDSSYVQWYQQRPGNSPTTVIYEDDQRPSGVPDRFSGSIDSSSNSASLTISGLVTEDEADYYCQSYDFHHLVFGGGTKLTVLC
B12: C1GM (hIgG1) (antibody)
heavy: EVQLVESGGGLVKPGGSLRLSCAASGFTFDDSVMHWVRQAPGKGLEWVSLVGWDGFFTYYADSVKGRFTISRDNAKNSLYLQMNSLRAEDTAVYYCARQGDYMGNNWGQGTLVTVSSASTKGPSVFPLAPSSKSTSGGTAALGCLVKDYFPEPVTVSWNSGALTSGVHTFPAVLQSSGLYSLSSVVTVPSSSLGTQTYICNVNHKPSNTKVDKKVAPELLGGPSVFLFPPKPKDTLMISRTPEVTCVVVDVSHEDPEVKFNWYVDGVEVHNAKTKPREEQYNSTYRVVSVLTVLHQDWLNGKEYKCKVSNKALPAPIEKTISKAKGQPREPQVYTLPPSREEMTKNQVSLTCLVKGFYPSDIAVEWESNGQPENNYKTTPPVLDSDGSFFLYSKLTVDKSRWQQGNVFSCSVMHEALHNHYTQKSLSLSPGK
light: NFMLTQPHSVSESPGKTVTISCTRSSGSIDSSYVQWYQQRPGSSPTTVIYEDDQRPSGVPDRFSGSIDSSSNSASLTISGLKTEDEADYYCQSYDFHHLVFGGGTKLTVLQPKAAPSVTLFPPSSEELQANKATLVCLISDFYPGAVTVAWKADSSPVKAGVETTTPSKQSNNKYAASSYLSLTPEQWKSHRSYSCQVTHEGSTVEKTVAPTECS
B13: C1GM-2 (hIgG2ΔA) (antibody)
heavy: EVQLVESGGGLVKPGGSLRLSCAASGFTFDDSVMHWVRQAPGKGLEWVSLVGWDGFFTYYADSVKGRFTISRDNAKNSLYLQMNSLRAEDTAVYYCARQGDYMGNNWGQGTLVTVSSASTKGPSVFPLAPCSRSTSESTAALGCLVKDYFPEPVTVSWNSGALTSGVHTFPAVLQSSGLYSLSSVVTVPSSNFGTQTYTCNVDHKPSNTKVDKTVAPPVAGPSVFLFPPKPKDTLMISRTPEVTCVVVDVSHEDPEVQFNWYVDGVEVHNAKTKPREEQFNSTFRVVSVLTVVHQDWLNGKEYKCKVSNKGLPSSIEKTISKTKGQPREPQVYTLPPSREEMTKNQVSLTCLVKGFYPSDIAVEWESNGQPENNYKTTPPMLDSDGSFFLYSKLTVDKSRWQQGNVFSCSVMHEALHNHYTQKSLSLSPGK
light: NFMLTQPHSVSESPGKTVTISCTRSSGSIDSSYVQWYQQRPGSSPTTVIYEDDQRPSGVPDRFSGSIDSSSNSASLTISGLKTEDEADYYCQSYDFHHLVFGGGTKLTVLQPKAAPSVTLFPPSSEELQANKATLVCLISDFYPGAVTVAWKADSSPVKAGVETTTPSKQSNNKYAASSYLSLTPEQWKSHRSYSCQVTHEGSTVEKTVAPTECS
notes: the footnote is printed with **)

The first assay deals with T1, human IL-7R on human peripheral blood …. Put plainly: cell-based or functional assay.
B1: the “IC50 (read off the curve)” value is about 0.1 µg/mL.

For the molecule B2, the “IC50 (read off the curve)” value was about 0.04 µg/mL.

The next assay deals with T2, Human IL-7R-hFc antigen (R&D systems). Put plainly: SPR (Biacore 2000/3000), IL-7R-hFc captured on anti-human Fc, antibody as analyte. The procedure:
The affinities of antagonist IL-7R antibodies to human IL-7R were measured on a surface plasmon resonance Biacore™ 2000 or 3000 biosensor equipped with a research-grade CM5 sensor chip (Biacore™ AB, Uppsala, Sweden—now GE Healthcare). Goat polyclonal anti-human F(ab′)2 fragments (Fc specific) were amine-coupled at saturating levels onto all four flow cells using a standard N-hydroxysuccinimide/ethyldimethylaminopropyl carbodiimide (NHS/EDC) chemistry in HBS-P running buffer (from Biacore™). The buffer was switched to HBS-P containing 1 mg/mL BSA. Human IL-7R-hFc antigen (R&D systems, Minneapolis, USA) was diluted to about 30 μg/mL and captured for 3 min at 5 μL/min to give levels of about 500-1000 RU per flow cell, leaving one blank to serve as a reference channel. Fab, hIgG1, or hIgG2ΔA formats of the antibodies were injected in duplicates as a 5-membered 3-fold series starting at 2 μM and a 5-membered 4-fold series starting at 0.4 μM for 3 min at 20-50 μL/min. Dissociation was monitored for 5 min. The capture chip was regenerated after the last injection of each titration with two 30 sec pulses of 75 mM phosphoric acid or 10 mM Glycine-HCl pH 1.7. Buffer cycles provided blanks for double-referencing the binding response data, which were then fit globally to a simple reversible binding model using Biaevaluation software v.4.1 to deduce the kinetic association and dissociation rate constants, respectively kₐ and kd. Affinities were deduced from their ratio (KD=kd/kₐ).
For B3, binding was put at a Kd of 225 nM, the koff is 0.00351 s⁻¹ and the kon was determined as 15600 M⁻¹ s⁻¹.

Consider B4, for which the Kd turned out to be 0.218 nM, the koff was found to be 0.000307 s⁻¹ and the kon came out at 1.41e+06 M⁻¹ s⁻¹.

As to B5, binding was characterised by a dissociation constant (Kd) of 0.06 nM, the koff is 0.000286 s⁻¹ and the kon worked out at 5.07e+06 M⁻¹ s⁻¹.

Turning to B6, the affinity, expressed as Kd, was 0.195 nM; the koff amounted to 0.000302 s⁻¹; the kon was 1.55e+06 M⁻¹ s⁻¹.

With B7, the dissociation constant Kd was 12 nM, the koff was found to be 0.000882 s⁻¹ and the kon worked out at 71700 M⁻¹ s⁻¹.

In turn, B8 gave a Kd of 204 nM, a koff of 0.0114 s⁻¹ and a kon of 56000 M⁻¹ s⁻¹.

In turn, B9 registered a Kd of 0.06 nM, a koff of 8.08e-05 s⁻¹ and a kon of 1.39e+06 M⁻¹ s⁻¹.

B10: the Kd is 0.04 nM, the off-rate constant (koff) was 0.000171 s⁻¹ and the on-rate (kon) was 4.85e+06 M⁻¹ s⁻¹.

The molecule B11 had a Kd of 3 nM, an off-rate (koff) of 0.000497 s⁻¹ and an on-rate constant (kon) of 155000 M⁻¹ s⁻¹.

Turning to B12, the Kd was found to be 0.286 nM, the koff was found to be 0.000405 s⁻¹ and the kon came to 1.42e+06 M⁻¹ s⁻¹.

Molecule B13 showed a Kd of 0.27 nM, a koff of 0.000407 s⁻¹ and a kon of 1.51e+06 M⁻¹ s⁻¹.

For the origin of these results see US20180327503A1 (RINAT NEUROSCIENCE, published 2018).
